Experimental data reported in patent US11278600B2, “Human alpha-galactosidase variants” (Codexis, Inc., priority 2014, dated 2022).
Positions count from the first letter of the chain named.

B1: 648 (protein)
chain: LDNGLARTPPMGWLHWERFMCNLDCQEEPDSCISEKLFEEMAERMVTEGWKDAGYEYLCIDDCWMAPQRDSEGRLQADPQRFPHGIRQLANHVHSKGLKLGIYADVGNKTCAGFPGSFGYYDIDAQTFADWGVDLLKFDGCYCDSLENLADGYKHMSLALNRTGRPIVYSCEWPLYMWPFQKPNYTEIRQYCNHWRNFADIDDSWASIKSILDWTSRNQERIVDVAGPGGWNDPDMLVIGNFGLSWDQQVTQMALWAIMAGPLFMSNDLRAISPQAKALLQDKDVIAINQDPLGKQGYQLRKGDNFEVWERPLSGDAWAVAIINRQEIGGPRSYTIPVASLGKGVACNPACFITQLLPVKRQLGFYNATSRLKSHINPTGTVLLQLENTMQTSLKDLL
modifications: Synthetic Polypeptide sequence of Variant No. 648
B2: 650 (protein)
chain: B1 chain with R7H, E39M, G261A, A368W
modifications: Synthetic Polypeptide sequence of Variant No. 650 of mature Human GLA
B3: 655 (protein)
chain: B1 chain with P10T, E39M, W246P, N305L
modifications: Synthetic Polypeptide sequence of Variant No. 655 of mature Human GLA
B4: 653 (protein)
chain: B1 chain with E39M, W246P, G261A, A368W
modifications: Synthetic Polypeptide sequence of Variant No. 653 of mature Human GLA
B5: 657 (protein)
chain: B1 chain with P10T, E39M, P67T, K182N, G261A, A368W
modifications: Synthetic Polypeptide sequence of Variant No. 657 of mature Human GLA
B6: 656 (protein)
chain: B1 chain with E39M, W246P, A368W
modifications: Synthetic Polypeptide sequence of Variant No. 656 of mature Human GLA
B7: 651 (protein)
chain: B1 chain with E39M, G261A, A368W
modifications: Synthetic Polypeptide sequence of Variant No. 651 of mature Human GLA
B8: 654 (protein)
chain: B1 chain with R7S, P10T, E39M, G261A, A368W
modifications: Synthetic Polypeptide sequence of Variant No. 654 of mature Human GLA
B9: 638 (protein)
chain: B1 chain with E39M, A368W
modifications: Synthetic Polypeptide sequence of Variant No. 638 of mature Human GLA
B10: 652 (protein)
chain: B1 chain with P10T, E39M, W246P, N305L, A368W
modifications: Synthetic Polypeptide sequence of Variant No. 652 of mature Human GLA
B11: 658 (protein)
chain: B1 chain with P10T, W246P, G261A, A368W
modifications: Synthetic Polypeptide sequence of Variant No. 658 of mature Human GLA
B12: 649 (protein)
chain: B1 chain with W246P, G261A, A368W
modifications: Synthetic Polypeptide sequence of Variant No. 649 of mature Human GLA
B13: 659 (protein)
chain: B1 chain with P10T, E39M, W64L, G261A, A368W
modifications: Synthetic Polypeptide sequence of Variant No. 659 of mature Human GLA
B14: 647 (protein)
chain: LDNGLARTPTMGWLHWERFMCNLDCQEEPDSCISEKLFMEMAERMVSEGWKDAGYEYLCIDDCWMAPQRDSEGRLQADPQRFPHGIRQLANYVHSIGLKLGIYADVGNKTCAGFPGSFGYYDIDAQTFADWGVDLLKFDGCYCDSLENLADGYKHMSLALNRTGRSIVYSCEWPLYMWPFQKPNYTEIRQYCNHWRNFADIDDSWASIKSILDWTSRNQERIVDVAGPGGWNDPDMLVIGNFGLSWNQQVTQMALWAIMAAPLFMSNDLRHISPQAKALLQDKDVIAINQDPLGKQGYQLRKGDNFEVWERPLSGLAWAVAIINRQEIGGPRSYTIAVASLGKGVACNPGCFITQLLPVKRQLGFYNWSSRLKSHINPTGTVLLQLENTMQMSLKDLL
modifications: Synthetic Polypeptide sequence of Variant No. 346 of mature Human GLA

Key:
Format in all cases: biochemical
[1] = HTP-analysis of supernatants pretreated with base (MUGal hydrolysis); conditions: activity of the variant/activity of Rd7BB (SEQ ID NO: 44); challenge at pH 7.5
Procedure, shortened: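 Supernatants from INVSc1 yeast expressing GLA variants (SD-Ura, 66-84 h, 30° C) were mixed with McIlvaine buffer pH 7.0-8.2 or 200 mM sodium bicarbonate pH 9.1-9.7 and held 1-18 h at 37° C. Residual activity was then measured on MUGal at pH 4.8/4.3, 37° C, 30-180 min, by fluorescence (Ex 355/Em 448 nm).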

[2] = HTP-analysis of supernatants pretreated with acid (MUGal hydrolysis); conditions: activity of the variant/activity of Rd7BB (SEQ ID NO: 44); challenge at pH 3.5
Procedure, shortened: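 Yeast INVSc1 supernatant, GLA variants; acid challenge: McIlvaine pH 3.3-4.3, 37° C., 1-3 h. Assay: MUGal in McIlvaine pH 4.8 plus citrate pH 4.3, 37° C., 30-180 min, Na2CO3 stop, Ex 355/Em 448 nm.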

[3] = HTP-analysis of yeast culture supernatants, no challenge (MUGal hydrolysis); conditions: activity of the variant/activity of Rd7BB (SEQ ID NO: 44)
Procedure, shortened: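 GLA variants expressed in yeast INVSc1, secreted into SD-Ura broth over 66-84 h at 30° C; clarified supernatants tested without challenge. Supernatant mixed with McIlvaine buffer pH 4.8 and 2 mM MUGal (citrate/KCl, pH 4.6), 37° C for 30-180 min, carbonate-quenched, fluorescence Ex 355/Em 448 nm.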

Row | Molecule | Relative Activity of GLA Variants After Challenge at pH 7.5 [1] | Relative Activity of GLA Variants After Challenge at pH 3.5 [2] | Relative Activity of GLA Variants After No Challenge (NC) [3]
1 | B1 | + (>0.5 to 1.5 relative activity over Rd7BB (SEQ ID NO: 44)) | + (>0.5 to 1.5 relative activity over Rd7BB (SEQ ID NO: 44)) | + (>0.5 to 1.5 relative activity over Rd7BB (SEQ ID NO: 44))
2 | B2 | + (>0.5 to 1.5 relative activity over Rd7BB (SEQ ID NO: 44)) | + (>0.5 to 1.5 relative activity over Rd7BB (SEQ ID NO: 44)) | + (>0.5 to 1.5 relative activity over Rd7BB (SEQ ID NO: 44))
3 | B3 | − (<0.5 relative activity to Rd7BB (SEQ ID NO: 44)) | − (<0.5 relative activity to Rd7BB (SEQ ID NO: 44)) | + (>0.5 to 1.5 relative activity over Rd7BB (SEQ ID NO: 44))
4 | B4 | + (>0.5 to 1.5 relative activity over Rd7BB (SEQ ID NO: 44)) | + (>0.5 to 1.5 relative activity over Rd7BB (SEQ ID NO: 44)) | + (>0.5 to 1.5 relative activity over Rd7BB (SEQ ID NO: 44))
5 | B5 | + (>0.5 to 1.5 relative activity over Rd7BB (SEQ ID NO: 44)) | + (>0.5 to 1.5 relative activity over Rd7BB (SEQ ID NO: 44)) | + (>0.5 to 1.5 relative activity over Rd7BB (SEQ ID NO: 44))
6 | B6 | + (>0.5 to 1.5 relative activity over Rd7BB (SEQ ID NO: 44)) | + (>0.5 to 1.5 relative activity over Rd7BB (SEQ ID NO: 44)) | + (>0.5 to 1.5 relative activity over Rd7BB (SEQ ID NO: 44))
7 | B7 | + (>0.5 to 1.5 relative activity over Rd7BB (SEQ ID NO: 44)) | + (>0.5 to 1.5 relative activity over Rd7BB (SEQ ID NO: 44)) | + (>0.5 to 1.5 relative activity over Rd7BB (SEQ ID NO: 44))
8 | B8 | + (>0.5 to 1.5 relative activity over Rd7BB (SEQ ID NO: 44)) | + (>0.5 to 1.5 relative activity over Rd7BB (SEQ ID NO: 44)) | + (>0.5 to 1.5 relative activity over Rd7BB (SEQ ID NO: 44))
9 | B9 | − (<0.5 relative activity to Rd7BB (SEQ ID NO: 44)) | − (<0.5 relative activity to Rd7BB (SEQ ID NO: 44)) | − (<0.5 relative activity to Rd7BB (SEQ ID NO: 44))
10 | B10 | − (<0.5 relative activity to Rd7BB (SEQ ID NO: 44)) | + (>0.5 to 1.5 relative activity over Rd7BB (SEQ ID NO: 44)) | + (>0.5 to 1.5 relative activity over Rd7BB (SEQ ID NO: 44))
11 | B11 | + (>0.5 to 1.5 relative activity over Rd7BB (SEQ ID NO: 44)) | + (>0.5 to 1.5 relative activity over Rd7BB (SEQ ID NO: 44)) | + (>0.5 to 1.5 relative activity over Rd7BB (SEQ ID NO: 44))
12 | B12 | + (>0.5 to 1.5 relative activity over Rd7BB (SEQ ID NO: 44)) | + (>0.5 to 1.5 relative activity over Rd7BB (SEQ ID NO: 44)) | + (>0.5 to 1.5 relative activity over Rd7BB (SEQ ID NO: 44))
13 | B13 | − (<0.5 relative activity to Rd7BB (SEQ ID NO: 44)) | − (<0.5 relative activity to Rd7BB (SEQ ID NO: 44)) | − (<0.5 relative activity to Rd7BB (SEQ ID NO: 44))
14 | B14 | − (<0.5 relative activity to Rd7BB (SEQ ID NO: 44)) | − (<0.5 relative activity to Rd7BB (SEQ ID NO: 44)) | − (<0.5 relative activity to Rd7BB (SEQ ID NO: 44))
